“And” between values parts separate entries of the source, which are not always exact repeats. Identical values can stand only once.
Assays:
[1] = test system: CD14 positive recurrent bladder cancer patient-derived xenograft (PDX); assay: Anti-CD14 IgG1/IgG4 with or without cisplatin, tumor treatment in PDX mice (tumor length, width, volume, tumor weight; Example 6); assay type: in vivo; conditions: for Tumor Length / Tumor Width: IgG1 5 mg/kg i.v. (Ex. 1), PDX mice 1-6
Source text: After removing the primary tumor tissue from the patient, the tissue was temporarily placed in a complete culture medium containing RPMI1640 (Gibco Roswell Park Memorial Institute 1640 Media)+PS (penicillin and streptomycin)+10% FBS (Fetal bovine serum). The tissue was then transported to a sterile operating room within an SPF-grade (Specific Pathogen Free) animal facility. The tumor tissue was cut to an appropriate size (5 millimeters (mm) in diameter). Severely immunodeficient NSG (NOD scid gamma mouse) mice were anesthetized using an isoflurane respirator. The tumor was transplanted subcutaneously into the right rib area through surgery. When the tumor volume reached 1 cm^3, it was passaged following the same procedure, and after expanding for three generations, the tumor became stable for use in formal experiments. During the experiment, passaging and expansion were performed as needed. When the tumor volume reached 100 mm^3, the mice were divided into groups according to the experimental requirements and treated with drugs.
The IgG4 tested is the original version of Atibuclimab.
Drug administration on the PDX mice was performed intravenously.

[2] = target: T1, recombinant human CD14 (B294801, histidine tagged) (Homo sapiens, UniProt P08571); assay: Biacore 8K kinetic and affinity test of humanized antibodies (Example 8); assay type: binding; conditions: Biacore 8K, analyte B294801 0.78125-25 nM, capture 1 μg/mL
T1 construct: His; purchased Shanghai BaiYing Biotechnology Co., Ltd B294801 (Batch number 20200518A22)
T1 sequence (P08571 20-345): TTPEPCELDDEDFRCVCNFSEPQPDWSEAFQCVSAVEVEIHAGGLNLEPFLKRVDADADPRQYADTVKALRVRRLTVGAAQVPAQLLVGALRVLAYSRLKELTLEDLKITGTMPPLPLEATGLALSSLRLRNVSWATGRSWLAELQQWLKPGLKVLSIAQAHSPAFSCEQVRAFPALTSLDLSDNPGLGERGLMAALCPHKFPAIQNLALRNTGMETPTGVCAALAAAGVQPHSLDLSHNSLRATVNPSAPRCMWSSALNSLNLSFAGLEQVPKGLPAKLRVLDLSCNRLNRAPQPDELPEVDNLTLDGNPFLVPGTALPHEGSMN
Protocol: Experimental reagents and consumables included Protein A chip (Cytiva, 29127556). Main instruments and equipment included Biacore 8K (Cytiva), shaker (Taicang Huamei), ELISA system (Molecular Devices), centrifuge (Baiyang), ultrapure water system (Millipore), and thermostatic incubator (BLUE PARD).
The antigen used for the binding affinity measurements is B294801. This antigen is a recombinant human CD14 antigen that is histidine tagged and has a molecular weight of 36 kDa. B294801 was purchased from Shanghai BaiYing Biotechnology Co., Ltd (name: Recombinant Human CD14/His Protein; Batch number 20200518A22). D6DD3D001 is a mouse antibody, and D6DD3D002-D6DD3D0016 are humanized antibodies. The antibodies are recombinant, human (hFc Tag). Selected parameters of the experimental samples are shown in Table 8-1, with MW referring to molecular weight in kiloDaltons (kDa).
The Biacore 8K platform was used to test the kinetic and affinity properties of the antibody. The operation was carried out according to the system instructions and indications.
The equilibrium dissociation constant (KD) reflects the affinity of the antibody to the target, with a smaller value indicating a stronger affinity. KD (in units of molarity) is determined by the ratio of the dissociation rate constant (koff) and the association rate constant (kon), that is, KD=Koff/kon.
15 humanized antibodies (numbered D6DD3D002-D6DD3D0016) and 1 mouse antibody (number D6DD3D001) were tested. For the experiments, the analyte solution comprises the B294801 antigen with an analyte concentration of 0.78125 nM, 1.5625 nM, 3.125 nM, 6.25 nM, 12.5 nM, and 25 nM. The capture concentration was 1 μg/mL. In Table 8-3, the change factor is the ratio of the equilibrium dissociation constant KD of the humanized to mouse antibody, and reflects the change in affinity after humanization.

B1: D6DD3D001: mouse-derived anti-CD14 IgG1 antibody; VH SEQ ID NO: 1, VL SEQ ID NO: 3, heavy chain SEQ ID NO: 2, light chain SEQ ID NO: 4 (antibody)
heavy: DVQLQQSGPGLVKPSQSLSLTCTVTGYSITSDSAWNWIRQFPGNRLEWMGYISYSGSTSYNPSLKSRISITRDTSKNQFFLQLNSVTTEDTATYYCVRGLRFAYWGQGTLVTVSSPSVFLFPPKPKDTLMISRTPEVTCVVVDVSHEDPEVKFNWYVDGVEVHNAKTKPREEQYNSTYRVVSVLTVLHQDWLNGKEYKCKVSNKALPAPIEKTISKAKGQPREPQVYTLPPSREEMTKNQVSLTCLVKGFYPSDIAVEWESNGQPENNYKTTPPVLDSDGSFFLYSKLTVDKSRWQQGNVFSCSVMHEALHNHYTQKSLSLSPGK
light: DIVLTQSPASLAVSLGQRATISCRASESVDSYVNSFLHWYQQKPGQPPKLLIYRASNLQSGIPARFSGSGSRTDFTLTINPVEADDVATYYCQQSNEDPYTFGGGTKLEIKRTVAAPSVFIFPPSDEQLKSGTASVVCLLNNFYPREAKVQWKVDNALQSGNSQESVTEQDSKDSTYSLSSTLTLSKADYEKHKVYACEVTHQGLSSPVTKSFNRGEC
Tumor Length ([1]; Day 0, 5 mg/kg): 5.49 mm and 6.47 mm and 6.35 mm and 7.09 mm and 6.67 mm and 6.45 mm | Tumor Width ([1]; Day 0, 5 mg/kg): 4.68 mm and 5.9 mm and 5.17 mm and 4.77 mm and 5.25 mm and 5.24 mm | Tumor Length ([1]; Day 4, 5 mg/kg): 7.07 mm and 6.57 mm and 5.62 mm and 7.08 mm and 6.02 mm and 6.24 mm | Tumor Width ([1]; Day 4, 5 mg/kg): 5.98 mm and 5.95 mm and 5.01 mm and 5.53 mm and 5.58 mm and 6.18 mm | Tumor Length ([1]; Day 7, 5 mg/kg): 7.09 mm and 6.9 mm and 6.93 mm and 6.25 mm and 6.83 mm and 8.42 mm | Tumor Width ([1]; Day 7, 5 mg/kg): 5.61 mm and 6.26 mm and 6.41 mm and 5.39 mm and 6.72 mm and 6.39 mm | Tumor Length ([1]; Day 11, 5 mg/kg): 7.21 mm and 8.38 mm and 8.42 mm and 8.88 mm and 7.93 mm and 6.52 mm | Tumor Width ([1]; Day 11, 5 mg/kg): 5.85 mm and 6.91 mm and 7.5 mm and 7.03 mm and 6.5 mm and 5.39 mm | Tumor Length ([1]; Day 14, 5 mg/kg): 8.71 mm and 8.88 mm and 8.53 mm and 8.28 mm and 9.34 mm and 8.3 mm | Tumor Width ([1]; Day 14, 5 mg/kg): 7.05 mm and 6.51 mm and 7.95 mm and 7.99 mm and 8.34 mm and 8.05 mm | Tumor Length ([1]; Day 18, 5 mg/kg): 8.97 mm and 8.58 mm and 10.62 mm and 9.13 mm and 10.97 mm and 10.6 mm | Tumor Width ([1]; Day 18, 5 mg/kg): 8.41 mm and 8.21 mm and 9.09 mm and 8.09 mm and 8.03 mm and 8.83 mm | Tumor Length ([1]; Day 21, 5 mg/kg): 10.32 mm and 9.85 mm and 10.71 mm and 10.99 mm and 9.04 mm and 9.86 mm | Tumor Width ([1]; Day 21, 5 mg/kg): 9.94 mm and 9.85 mm and 8.59 mm and 8.23 mm and 8.97 mm and 9.35 mm | Tumor Length ([1]; Day 25, 5 mg/kg): 10.94 mm and 11.6 mm and 9.44 mm and 10.91 mm and 11.63 mm and 11.67 mm | Tumor Width ([1]; Day 25, 5 mg/kg): 10.71 mm and 8.34 mm and 9.23 mm and 9.83 mm and 10.03 mm and 9.39 mm | Tumor Length ([1]; Day 28, 5 mg/kg): 11.18 mm and 12.43 mm and 12.8 mm and 10.15 mm and 10.49 mm | Tumor Width ([1]; Day 28, 5 mg/kg): 9.72 mm and 10.02 mm and 9.93 mm and 10.84 mm and 9.98 mm and 9.95 mm | Tumor weight after 28 days ([1]; IgG1 (5 mg/kg), Ex. 1, per mouse 1-6, 5 mg/kg): 0.645 grams and 0.585 grams and 0.501 grams and 0.618 grams and 0.641 grams and 0.555 grams | tumor suppression rate ([1]; single anti-CD14-IgG1 5 mg/kg (Ex. 1), after 28 days, compared to the control group): about 50% | koff (1:1 binding) [2]: 0.000858 s⁻¹ | kon (1:1 binding) [2]: 1.77e+06 M⁻¹ s⁻¹

Source: patent US20250011456A1, “ANTIBODIES AGAINST CD14 AND USES THEREOF” (Villanelle Life Science Inc, priority 2023, published 2025)
